Source: publication PMC13365592

Tests used:
Assay in all cases: cryo-EM structure
[1] = target: MEL_213b (melbournevirus)
MEL_256 (melbournevirus) = target: MEL_256 (melbournevirus)
[2] = target: major capsid protein MEL_305 (melbournevirus)

For MEL_213b (natural protein), the stoichiometry N [1] was 2.

MEL_256 (natural protein) showed a stoichiometry N (MEL_256 (melbournevirus)) of 5.

“major capsid protein MEL_305 (natural protein)” showed a stoichiometry N [2] of 3.
